This passage reports Cell fusion (IC90) and HIV infectivity (IC90) results from patent publication US6951717.

For this test, the target named is viral gp41 (HIV-1 transmembrane protein) of HIV-1IIIB (HIV-1IIIB) (UniProt P04578). Put plainly: cell-based or functional assay.
For “DP107 (SEQ ID NO:25), synthetic peptide corresponding to amino acids 558 to 595 of HIV-1LAI gp41”, the Cell fusion (IC90) came to 1000 nM and the HIV infectivity (IC90) stood at 1000 nM.
For “DP178 (SEQ ID NO:1), synthetic peptide corresponding to amino acids 638 to 673 of HIV-1LAI gp41”, the Cell fusion (IC90) came out at 1 nM and the HIV infectivity (IC90) is 80 nM.
The substance “M41 (maltose binding protein fused to the extracellular domain of HIV-1 gp41, residues 540-686) (from UniProt P0AEX9 27-392; P03377 540-686)” had a Cell fusion (IC90) greater than 50000 nM and an HIV infectivity (IC90) greater than 16000 nM.
As for “M41-P (M41 with an Ile to Pro mutation at position 578) (from UniProt P0AEX9 27-392; P03377 540-686)”, the Cell fusion (IC90) amounted to 83 nM and the HIV infectivity (IC90) came out at 66 nM.
